Laboratory results reported in patent US20250043302A1, “MUTATED HYDROXYPHENYLPYRUVATE DIOXYGENASE POLYPEPTIDE, AND CODING GENE AND USE THEREOF” (BEIJING DABEINONG BIOTECHNOLOGY CO., LTD., priority 2021, published 2025).

System: Arabidopsis thaliana T1 plants
Experiment: Mesotrione tolerance of transgenic Arabidopsis thaliana T1 plants (spray, bleached leaf area grade, damage score)
Format: in vivo
Set-up: Scores: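 damage score 0-100 computed as Σ(N×S)/(T×M)×100 over grades 0-3 with higher meaning more damage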
Conditions: for Classification and statistics of the grade of pesticide damage: Grade 0 / Classification and statistics of the grade of pesticide damage: Grade 1 / Classification and statistics of the grade of pesticide damage: Grade 2 / Classification and statistics of the grade of pesticide damage: Grade 3: number of plants
Method in brief: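 T1 transformants selected by glufosinate; 18-day-old plants, with empty-vector and wild-type controls, sprayed with topramezone (25–200 g ai/ha), isoxaflutole (35–280 g ai/ha) or mesotrione (52.5–420 g ai/ha), water as 0×. Bleached leaf area fraction scored at 7 DAT as grades 0–3.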

[1] = mesotrione 210 g ai/ha (two-fold field concentration), 7 DAT, Table 3
[2] = mesotrione 210 g ai/ha, number of plants in grade
[3] = mesotrione 420 g ai/ha (4×), 7 DAT, Table 3
[4] = mesotrione 420 g ai/ha, number of plants in grade

B1: AsHPPD-02: nucleotide sequence encoding Avena sativa wild-type HPPD; vector DBN11727 (nucleic acid)
DNA: ATGCCACCTACTCCAGCTACAGCTACTGGTGCTGCTGCTGCTGCCGTTACTCCTGAGCACGCTGCCAGGTCATTCCCCAGGGTGGTTCGCGTGAACCCCAGATCTGATAGGTTCCCAGTTCTGAGCTTCCACCATGTTGAGCTGTGGTGCGCTGATGCTGCTTCTGCTGCTGGCAGGTTCTCTTTCGCTCTTGGTGCTCCACTCGCTGCTAGATCTGATCTGTCTACAGGAAATAGCGCTCATGCCTCACTCCTGCTTCGCTCAGGTGCTTTGGCCTTCCTCTTCACCGCTCCATATGCTCCCCCACCTCAGGAGGCTGCTACTGCTGCTGCTACAGCCTCCATTCCAAGCTTCTCAGCTGATGCCGCTAGAACCTTCGCTGCTGCTCATGGACTTGCCGTGAGGTCTGTTGGTGTTCGCGTGGCTGATGCTGCTGAGGCTTTCAGAGTTTCCGTTGCCGGCGGAGCTAGGCCAGCTTTCGCTCCTGCTGATTTGGGACATGGTTTCGGCCTGGCTGAGGTTGAGCTTTACGGTGACGTGGTTCTCCGCTTCGTGTCTTACCCAGATGAGACTGACCTGCCTTTCCTTCCCGGCTTCGAGAGAGTTTCCTCTCCTGGTGCCGTGGATTACGGCCTGACAAGGTTCGACCACGTGGTTGGAAACGTTCCCGAGATGGCTCCAGTGATCGATTACATGAAGGGCTTCCTTGGATTCCATGAGTTCGCCGAGTTCACTGCTGAGGACGTGGGAACCACTGAGTCCGGTTTGAACTCTGTGGTTCTCGCCAACAATTCTGAGGCTGTTTTGCTCCCTCTGAATGAGCCTGTGCATGGAACCAAGAGGAGAAGCCAGATTCAAACTTACCTGGAGTACCACGGTGGCCCTGGAGTTCAGCATATCGCCCTTGCTTCTAATGATGTGTTGCGCACACTCAGAGAGATGCGCGCCAGAACCCCCATGGGAGGTTTCGAGTTCATGGCCCCACCACAGGCTAAGTACTACGAGGGCGTTAGAAGGATTGCTGGAGACGTGTTGAGCGAGGAGCAGATCAAGGAGTGCCAAGAGCTGGGTGTTCTTGTGGATAGGGATGACCAGGGCGTTCTGCTTCAAATTTTCACTAAGCCAGTGGGCGACCGCCCTACATTCTTCCTTGAGATGATTCAAAGAATCGGCTGCATGGAGAAGGATGAGGTTGGACAGGAGTACCAAAAGGGCGGATGCGGTGGCTTCGGAAAGGGTAACTTCAGCGAGTTGTTCAAGTCAATCGAGGACTACGAGAAGAGCCTCGAGGTGAAGCAGTCAGTGGTTGCCCAAAAGTCCTGA
modifications: AsHPPD-02 Nucleotide Sequence
notes: vector DBN11727
Q: For B1, which Resistance evaluation (Table 9, mesotrione 210 g ai/ha (2×)) is on record?
A: Its Resistance evaluation is “Non-resistant”.

Q: What about the “Classification and statistics of the grade of pesticide damage Grade 0” value (Table 9, mesotrione 210 g ai/ha (2×), number of plants at grade 0) of the same molecule?
A: Its value is 0.

Q: What about the “Classification and statistics of the grade of pesticide damage Grade 1” value (Table 9, mesotrione 210 g ai/ha (2×), number of plants at grade 1) of the same molecule?
A: The value was 0.

Q: What about the “Classification and statistics of the grade of pesticide damage Grade 2” value (Table 9, mesotrione 210 g ai/ha (2×), number of plants at grade 2) of the same molecule?
A: Its value is 0.

Q: And the “Classification and statistics of the grade of pesticide damage Grade 3” value (Table 9, mesotrione 210 g ai/ha (2×), number of plants at grade 3)?
A: Its value is 16.

Q: What about the Scores (Table 9, mesotrione 210 g ai/ha (2×), pesticide damage score) of the same molecule?
A: The Scores was 100.

Q: And the Resistance evaluation (Table 9, mesotrione 420 g ai/ha (4×))?
A: Its Resistance evaluation is “Non-resistant”.

Q: What about the “Classification and statistics of the grade of pesticide damage Grade 0” value (Table 9, mesotrione 420 g ai/ha (4×), number of plants at grade 0) of the same molecule?
A: The value was 0.

Q: What about the “Classification and statistics of the grade of pesticide damage Grade 1” value (Table 9, mesotrione 420 g ai/ha (4×), number of plants at grade 1) of the same molecule?
A: Its value is 0.

Q: And the “Classification and statistics of the grade of pesticide damage Grade 2” value (Table 9, mesotrione 420 g ai/ha (4×), number of plants at grade 2)?
A: The value was 0.

Q: And the “Classification and statistics of the grade of pesticide damage Grade 3” value (Table 9, mesotrione 420 g ai/ha (4×), number of plants at grade 3)?
A: Its value is 16.

Q: What about the Scores (Table 9, mesotrione 420 g ai/ha (4×), pesticide damage score) of the same molecule?
A: The Scores was 100.

Q: What about the Resistance evaluation (Table 12, mesotrione 210 g ai/ha (2×)) of the same molecule?
A: The Resistance evaluation was “Non-resistant”.

Q: And the “Classification and statistics of the grade of pesticide damage Grade 0” value (Table 12, mesotrione 210 g ai/ha (2×), number of plants at grade 0)?
A: Its value is 0.

Q: And the “Classification and statistics of the grade of pesticide damage Grade 1” value (Table 12, mesotrione 210 g ai/ha (2×), number of plants at grade 1)?
A: Its value is 0.

Q: What about the “Classification and statistics of the grade of pesticide damage Grade 2” value (Table 12, mesotrione 210 g ai/ha (2×), number of plants at grade 2) of the same molecule?
A: Its value is 0.

Q: What about the “Classification and statistics of the grade of pesticide damage Grade 3” value (Table 12, mesotrione 210 g ai/ha (2×), number of plants at grade 3) of the same molecule?
A: The value was 16.

Q: What about the Scores (Table 12, mesotrione 210 g ai/ha (2×), pesticide damage score) of the same molecule?
A: Its Scores is 100.

Q: What about the Resistance evaluation (Table 12, mesotrione 420 g ai/ha (4×)) of the same molecule?
A: The Resistance evaluation was “Non-resistant”.

Q: And the “Classification and statistics of the grade of pesticide damage Grade 0” value (Table 12, mesotrione 420 g ai/ha (4×), number of plants at grade 0)?
A: Its value is 0.

Q: And the “Classification and statistics of the grade of pesticide damage Grade 1” value (Table 12, mesotrione 420 g ai/ha (4×), number of plants at grade 1)?
A: Its value is 0.

Q: What about the “Classification and statistics of the grade of pesticide damage Grade 2” value (Table 12, mesotrione 420 g ai/ha (4×), number of plants at grade 2) of the same molecule?
A: Its value is 0.

Q: And the “Classification and statistics of the grade of pesticide damage Grade 3” value (Table 12, mesotrione 420 g ai/ha (4×), number of plants at grade 3)?
A: Its value is 16.

Q: What about the Scores (Table 12, mesotrione 420 g ai/ha (4×), pesticide damage score) of the same molecule?
A: The Scores was 100.

Q: What about the “tolerance to mesotrione (in words)” value (in vivo) of the same molecule?
A: Its value is “no tolerance”.

Q: And the Resistance evaluation (mesotrione 210 g ai/ha)?
A: The Resistance evaluation was “Non-resistant”.

Q: And the Scores (mesotrione 210 g ai/ha)?
A: The Scores was 100.

Q: What about the Resistance evaluation [1] of the same molecule?
A: The Resistance evaluation was “non-resistant (non-resistant plants (scores 68-100))”.

Q: What about the “Classification and statistics of the grade of pesticide damage Grade 0” value [2] of the same molecule?
A: Its value is 0.

Q: And the “Classification and statistics of the grade of pesticide damage Grade 1” value [2]?
A: The value was 0.

Q: And the “Classification and statistics of the grade of pesticide damage Grade 2” value [2]?
A: The value was 0.

Q: And the “Classification and statistics of the grade of pesticide damage Grade 3” value [2]?
A: Its value is 16.

Q: And the Resistance evaluation (mesotrione 420 g ai/ha)?
A: Its Resistance evaluation is “Non-resistant”.

Q: And the Scores (mesotrione 420 g ai/ha)?
A: The Scores was 100.

Q: What about the Resistance evaluation [3] of the same molecule?
A: The Resistance evaluation was “non-resistant (non-resistant plants (scores 68-100))”.

Q: What about the “Classification and statistics of the grade of pesticide damage Grade 0” value [4] of the same molecule?
A: Its value is 0.

Q: And the “Classification and statistics of the grade of pesticide damage Grade 1” value [4]?
A: Its value is 0.

Q: What about the “Classification and statistics of the grade of pesticide damage Grade 2” value [4] of the same molecule?
A: Its value is 0.

Q: And the “Classification and statistics of the grade of pesticide damage Grade 3” value [4]?
A: The value was 16.

Q: What about the “Classification and statistics of the grade of pesticide damage: Grade 0” value [1] of the same molecule?
A: Its value is 0.

Q: What about the “Classification and statistics of the grade of pesticide damage: Grade 1” value [1] of the same molecule?
A: The value was 0.

Q: And the “Classification and statistics of the grade of pesticide damage: Grade 2” value [1]?
A: Its value is 0.

Q: And the “Classification and statistics of the grade of pesticide damage: Grade 3” value [1]?
A: Its value is 16.

Q: What about the “Classification and statistics of the grade of pesticide damage: Grade 0” value [3] of the same molecule?
A: Its value is 0.

Q: What about the “Classification and statistics of the grade of pesticide damage: Grade 1” value [3] of the same molecule?
A: Its value is 0.

Q: And the “Classification and statistics of the grade of pesticide damage: Grade 2” value [3]?
A: Its value is 0.

Q: And the “Classification and statistics of the grade of pesticide damage: Grade 3” value [3]?
A: The value was 16.

Q: And the Scores (pesticide damage score 0-100, mesotrione 210 g ai/ha (two-fold field concentration), 7 DAT, Table 3)?
A: The Scores was 100.

Q: And the Scores (pesticide damage score 0-100, mesotrione 420 g ai/ha (4×), 7 DAT, Table 3)?
A: The Scores was 100.
